Among the targets are FGFR2(h) (human) (UniProt P21802); WNK2(h) (human) (UniProt Q9Y3S1); Mnk2(h) (human) (UniProt Q9HBH9); PKA(h) (human) (UniProt P17612); RIPK2(h) (human) (UniProt O43353); Plk3(h) (human) (UniProt Q9H4B4); PKCε(h) (human) (UniProt Q02156); Syk(h) (human) (UniProt P43405); PAK4(h) (human) (UniProt O96013); IRAK1(h) (human) (UniProt P51617); PDGFRα(h) (human) (UniProt P16234); STK33(h) (human) (UniProt Q9BYT3); CK2(h) (human) (UniProt P68400).

Experiment in all cases: cell-based or functional assay
The next assay addresses T1, Ret(V804M)(h) (human) (UniProt P07949).
T1 sequence (looked up): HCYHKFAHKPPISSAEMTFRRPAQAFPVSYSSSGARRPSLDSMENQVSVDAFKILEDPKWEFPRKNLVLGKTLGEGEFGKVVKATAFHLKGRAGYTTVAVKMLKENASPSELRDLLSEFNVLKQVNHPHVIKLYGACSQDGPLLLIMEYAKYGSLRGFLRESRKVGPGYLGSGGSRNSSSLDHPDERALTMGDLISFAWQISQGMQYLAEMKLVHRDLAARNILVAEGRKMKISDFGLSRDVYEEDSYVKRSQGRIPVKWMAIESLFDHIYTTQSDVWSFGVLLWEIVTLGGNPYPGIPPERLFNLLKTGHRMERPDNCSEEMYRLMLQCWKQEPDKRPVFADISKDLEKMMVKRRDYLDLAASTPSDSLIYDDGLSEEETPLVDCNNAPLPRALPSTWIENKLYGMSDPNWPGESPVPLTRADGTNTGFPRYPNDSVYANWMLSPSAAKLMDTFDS

A further assay addresses T2, TAO2(h) (human) (UniProt Q9UL54).
T2 sequence (looked up): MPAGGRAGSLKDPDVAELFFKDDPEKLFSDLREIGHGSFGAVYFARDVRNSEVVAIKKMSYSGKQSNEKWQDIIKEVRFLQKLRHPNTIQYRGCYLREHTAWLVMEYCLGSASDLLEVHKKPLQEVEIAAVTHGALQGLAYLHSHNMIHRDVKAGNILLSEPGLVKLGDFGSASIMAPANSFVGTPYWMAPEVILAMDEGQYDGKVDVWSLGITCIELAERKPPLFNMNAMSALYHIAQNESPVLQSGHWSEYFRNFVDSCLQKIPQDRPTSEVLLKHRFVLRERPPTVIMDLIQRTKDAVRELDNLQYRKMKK

In the next assay the target is T3, PrKX(h) (human) (UniProt P51817).
T3 sequence (looked up): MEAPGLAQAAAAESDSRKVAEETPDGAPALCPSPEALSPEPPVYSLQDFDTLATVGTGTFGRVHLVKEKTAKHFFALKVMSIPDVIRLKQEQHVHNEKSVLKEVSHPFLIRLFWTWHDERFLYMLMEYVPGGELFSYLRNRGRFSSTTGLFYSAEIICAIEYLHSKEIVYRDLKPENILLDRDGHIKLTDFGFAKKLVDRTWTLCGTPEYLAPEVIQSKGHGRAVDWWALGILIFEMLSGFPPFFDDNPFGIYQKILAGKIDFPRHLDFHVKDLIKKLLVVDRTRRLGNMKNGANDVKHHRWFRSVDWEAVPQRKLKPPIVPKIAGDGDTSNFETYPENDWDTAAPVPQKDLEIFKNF

A further assay concerns the target T4, Axl(h) (human) (UniProt P30530).
T4 sequence (looked up): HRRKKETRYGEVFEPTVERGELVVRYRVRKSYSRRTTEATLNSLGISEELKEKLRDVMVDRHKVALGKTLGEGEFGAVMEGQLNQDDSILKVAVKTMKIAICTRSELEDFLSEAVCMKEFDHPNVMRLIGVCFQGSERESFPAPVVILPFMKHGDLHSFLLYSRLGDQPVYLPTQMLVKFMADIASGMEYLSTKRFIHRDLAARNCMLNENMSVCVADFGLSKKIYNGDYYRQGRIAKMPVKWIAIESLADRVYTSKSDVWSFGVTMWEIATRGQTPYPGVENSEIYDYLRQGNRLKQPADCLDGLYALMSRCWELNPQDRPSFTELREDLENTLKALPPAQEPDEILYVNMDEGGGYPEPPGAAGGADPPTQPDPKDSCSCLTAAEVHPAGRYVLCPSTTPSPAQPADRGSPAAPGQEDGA

The next assay concerns the target T5, ULK3(h) (human) (UniProt Q6PHR2).
T5 sequence (looked up): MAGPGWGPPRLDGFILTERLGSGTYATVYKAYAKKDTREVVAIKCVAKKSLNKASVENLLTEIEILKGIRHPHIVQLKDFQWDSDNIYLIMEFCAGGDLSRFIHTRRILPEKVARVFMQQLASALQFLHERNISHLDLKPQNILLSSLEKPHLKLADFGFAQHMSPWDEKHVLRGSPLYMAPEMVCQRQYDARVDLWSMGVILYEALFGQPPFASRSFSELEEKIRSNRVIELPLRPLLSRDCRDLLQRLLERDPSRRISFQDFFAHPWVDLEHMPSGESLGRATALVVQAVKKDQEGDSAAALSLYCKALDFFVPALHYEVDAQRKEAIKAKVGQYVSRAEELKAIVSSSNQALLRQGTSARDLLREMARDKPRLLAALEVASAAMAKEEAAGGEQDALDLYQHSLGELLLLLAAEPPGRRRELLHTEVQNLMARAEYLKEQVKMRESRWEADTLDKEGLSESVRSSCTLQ

% activity data for 3 substances are collected here from patent US20150064134A1.

Sequence of FGFR2(h) (human) (P21802 456-770 limits assumed): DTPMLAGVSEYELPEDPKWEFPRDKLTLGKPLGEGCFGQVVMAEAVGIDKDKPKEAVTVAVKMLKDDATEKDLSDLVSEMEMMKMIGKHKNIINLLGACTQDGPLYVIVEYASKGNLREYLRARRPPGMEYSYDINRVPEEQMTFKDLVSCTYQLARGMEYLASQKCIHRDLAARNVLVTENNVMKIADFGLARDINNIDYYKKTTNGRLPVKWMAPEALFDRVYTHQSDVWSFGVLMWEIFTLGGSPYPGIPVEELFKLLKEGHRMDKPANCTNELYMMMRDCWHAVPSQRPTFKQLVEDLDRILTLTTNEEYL
Sequence of PDGFRα(h) (human) (P16234 550-1089 limits assumed): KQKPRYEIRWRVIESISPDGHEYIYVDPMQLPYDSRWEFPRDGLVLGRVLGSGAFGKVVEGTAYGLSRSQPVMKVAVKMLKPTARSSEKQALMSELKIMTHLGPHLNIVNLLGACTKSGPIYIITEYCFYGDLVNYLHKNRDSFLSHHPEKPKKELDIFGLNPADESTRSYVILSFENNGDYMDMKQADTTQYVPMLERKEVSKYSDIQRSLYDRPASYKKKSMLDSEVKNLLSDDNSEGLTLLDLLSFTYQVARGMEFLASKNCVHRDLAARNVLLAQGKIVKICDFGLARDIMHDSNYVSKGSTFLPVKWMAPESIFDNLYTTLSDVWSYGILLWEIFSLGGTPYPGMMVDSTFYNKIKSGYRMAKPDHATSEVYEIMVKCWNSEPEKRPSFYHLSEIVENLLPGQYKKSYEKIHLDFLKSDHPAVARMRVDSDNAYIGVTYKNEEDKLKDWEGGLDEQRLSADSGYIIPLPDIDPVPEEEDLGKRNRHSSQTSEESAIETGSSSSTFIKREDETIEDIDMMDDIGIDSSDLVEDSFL
Sequence of RIPK2(h) (human) (O43353 1-299 limits assumed): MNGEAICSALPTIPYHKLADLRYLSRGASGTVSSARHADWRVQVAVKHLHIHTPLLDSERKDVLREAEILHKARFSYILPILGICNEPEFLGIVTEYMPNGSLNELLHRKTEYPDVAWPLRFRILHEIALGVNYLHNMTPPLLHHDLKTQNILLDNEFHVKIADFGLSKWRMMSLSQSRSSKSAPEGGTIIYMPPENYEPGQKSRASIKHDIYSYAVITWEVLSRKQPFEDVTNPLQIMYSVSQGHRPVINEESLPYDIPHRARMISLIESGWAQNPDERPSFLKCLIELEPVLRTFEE

Regarding MMI-0400 (peptide), the % activity at 100 µM with FGFR2(h) (human) amounted to 18%; in the assay with WNK2(h) (human) it was 54%; with Mnk2(h) (human), 86%; in the assay with PKA(h) (human), 119%; in the assay with RIPK2(h) (human), 98%; with Plk3(h) (human) it was 129%. Besides, the % activity at 100 µM was 59% with PKCε(h) (human); 87% with Ret(V804M)(h) (human); 74% with TAO2(h) (human); 76% with PrKX(h) (human); 41% in the assay with Axl(h) (human); 9% with Syk(h) (human). In addition, the % activity at 100 µM with PAK4(h) (human) turned out to be 89%; with ULK3(h) (human) it was 147%; in the assay with IRAK1(h) (human) it was 93%; with PDGFRα(h) (human), 40%; in the assay with STK33(h) (human) it was 52%; with CK2(h) (human), 101%.

In the case of MMI-0500 (peptide), the % activity at 100 µM with FGFR2(h) (human) turned out to be 12%; in the assay with WNK2(h) (human), 8%; with Mnk2(h) (human), 6%; with PKA(h) (human), 118%; with RIPK2(h) (human), 30%; in the assay with Plk3(h) (human), 122%. Also, the % activity at 100 µM in the assay with PKCε(h) (human) was 23%; with Ret(V804M)(h) (human) it was 36%; in the assay with TAO2(h) (human), 15%; in the assay with PrKX(h) (human), 57%; with Axl(h) (human), 12%; with Syk(h) (human), 5%. The % activity at 100 µM in the assay with PAK4(h) (human) was found to be 86%; with ULK3(h) (human), 177%; in the assay with IRAK1(h) (human), 5%; in the assay with PDGFRα(h) (human), 40%; in the assay with STK33(h) (human), 16%; with CK2(h) (human) it was 93%.

On to MMI-0300 (peptide), for which the % activity at 100 µM with FGFR2(h) (human) worked out at 14%; with WNK2(h) (human), 64%; with Mnk2(h) (human), 89%; with PKA(h) (human), 119%; in the assay with RIPK2(h) (human), 97%; with Plk3(h) (human), 127%. For the same substance, the % activity at 100 µM is 79% with PKCε(h) (human); 95% in the assay with Ret(V804M)(h) (human); 70% with TAO2(h) (human); 61% with PrKX(h) (human); 52% with Axl(h) (human); 24% with Syk(h) (human). The % activity at 100 µM with PAK4(h) (human) amounted to 94%; with ULK3(h) (human), 167%; with IRAK1(h) (human), 95%; with PDGFRα(h) (human), 65%; in the assay with STK33(h) (human), 45%; in the assay with CK2(h) (human), 90%.
